Measurements taken from the supplement of paper PMC10567573.
± gives the standard deviation.

Test: protein stability index of a GFP-peptide fusion (GPS, HEK-293T) (PSI 1-6); higher = more stable
[1] = treatment: DMSO, c terminus: a fixed tail appended
[2] = treatment: MLN4924 1 uM, 8 h, c terminus: a fixed tail appended
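Also: 24-mer peptide tiles fused after GFP, lentivirally expressed, FACS-sorted into six equal bins by GFP/DsRed ratio, decoded by Illumina sequencing, PSI is the read-weighted mean bin number.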

| Sequence | protein stability index [1] | protein stability index [2] | protein stability index (treatment: DMSO, c terminus: native) | protein stability index (treatment: MLN4924 1 uM, 8 h, c terminus: native) |
| --- | --- | --- | --- | --- |
| SERPLDFLDLERPPTTPQNEEIRA [MFF] | 5.29 ± 0.39 | 5.55 ± 0.15 |  |  |
| AGADLPPPKIRLKPHRLGDSEHEP [PWWP2B] | 4.83 ± 0.23 | 4.91 ± 0.28 |  |  |
| DVVKTQRQVALGAMEAVRVNPLHV [SLC25A39] | 3.05 ± 0.22 | 3.23 ± 0.13 |  |  |
| AKALNRPPTYPTKYFGCELGAQTQ [EIF5] | 2.71 ± 0.23 | 3.15 ± 0.13 |  |  |
| KSQSLRSVRRSESWARPRPDEERP [RASAL3] | 4.89 ± 0.36 | 4.99 ± 0.12 |  |  |
| LTAQGQQFHCHKAVLASCSQYFRS [KLHL14] | 2.27 ± 0.25 | 2.37 ± 0.33 |  |  |
| WMEVLVLGVAQRSLPLQDELAFAE [ESRRA] | 3.47 ± 0.63 | 2.64 ± 0.97 |  |  |
| TCTWKLPTLAKFSPYLGQMINLRR [PRAME] | 2.28 ± 0.27 | 1.89 ± 0.3 |  |  |
| YRCIREARYTMPSSLLAPAKHLIA [PLK2] | 2.56 ± 0.54 | 2.48 ± 0.18 |  |  |
| GDSASEEKSGSAEPFVLPASSVES [FBXO34] | 5.39 ± 0.33 | 5.42 ± 0.42 |  |  |
| KYEQAFESSQKYKEGKYIIELNHM [YPEL3] | 2.71 ± 0.1 | 2.87 ± 0.2 |  |  |
| ALVFGVNTFIALALQTLLTLIVVD [SLC19A2] | 3.33 ± 0.55 | 3.37 ± 0.58 |  |  |
| RMPLLTPRYITDVIDAEPFIRCSL [KLHL12] | 2.27 ± 0.28 | 1.84 ± 0.52 |  |  |
| MLKFLAKGEVPKGSCEDEPMDSTM [ATE1] | 4.22 ± 0.3 | 4.36 ± 0.092 |  |  |
| DCSFPGLPRHQDQPHHQPPNRAGA [TRAF3IP2] | 4.91 ± 0.062 | 5.03 ± 0.14 |  |  |
| GEDCKLPPQPCATACKPVIRVPSV [KRT36] | 3.3 ± 0.22 | 3.23 ± 0.22 |  |  |
| EKVKACQGQYETIERLRSLSPKIM [TBC1D10A] | 3.02 ± 0.28 | 3.23 ± 0.16 |  |  |
| ILNPHVHVIGEDAACIAYIRLTQY [CAMK2B] | 2.51 ± 0.63 | 2.31 ± 0.27 |  |  |
| VQTEDQYQFSYRAALEYLGSFDHY [PTPRD] | 2.22 ± 0.26 | 2.51 ± 0.22 |  |  |
| VAQGPTNQGLNVMVWNQNGKSPSI [ADAMTSL2] | 3.11 ± 0.4 | 3.62 ± 0.23 |  |  |
| DKSPSTVRDQGPSIPLTPGDTPIR [FBF1] | 5.08 ± 0.18 | 5.26 ± 0.18 |  |  |
| DRLWRPSKVLSLQDLCCRAVVSCT [RAB40B] | 3.01 ± 0.17 | 2.8 ± 0.21 |  |  |

| Sequence | protein stability index [1] | protein stability index [2] | protein stability index (treatment: DMSO, c terminus: native) | protein stability index (treatment: MLN4924 1 uM, 8 h, c terminus: native) |
| --- | --- | --- | --- | --- |
| LDQPVSAPPSPRDISMEIDSPENM [CCDC6] | 5.47 ± 0.2 | 5.23 ± 0.41 |  |  |
| VSVNAQTLDGRTPLHLAAQRGHYR [RIPK4] | 3.76 ± 0.29 | 3.77 ± 0.58 |  |  |
| LEIDSGVITLDPQTASRSLVLSED [TRIM15] | 4.69 ± 0.19 | 4.74 ± 0.32 |  |  |
| TGTSKRYQLCRVQECPPDGRSFRE [ADAMTSL2] | 2.58 ± 0.71 | 3.09 ± 0.62 |  |  |
| LLPTLYEIHSKTTAYSRLNETQPI [RNF180] | 1.96 ± 0.15 | 2.15 ± 0.41 |  |  |
| IEKCTTPLSDDHDEKYGVPSLEEL [CRY1] | 5.11 ± 0.25 | 5.14 ± 0.18 |  |  |
| RVRPLARVTSLANLISPVRNGAVR [NET1] | 3.12 ± 0.17 | 3.2 ± 0.41 |  |  |
| PEERLEKQNEKLNNQEEETEFKEL [CCDC89] | 5.67 ± 0.11 | 5.48 ± 0.29 |  |  |
| LARPECLFLLLGHGASPGLRDGGG [ANKRD9] | 2.29 ± 0.54 | 2.19 ± 0.23 |  |  |
| HNQVEAAWLEGRIRQEFDKLREFL [TRIM35] | 3.5 ± 0.52 | 3.75 ± 0.48 |  |  |
| AEKRKRQAEIENKRRQLEDERRQL [PALM] | 4.68 ± 0.5 | 4.94 ± 0.32 |  |  |
| STHHGCEHICVNNGNSYICKCSEG [MATN2] | 5.16 ± 0.27 | 4.94 ± 0.23 |  |  |
| AAEQAERSQSSIVPEEEQAANKGE [SMARCE1] | 5.51 ± 0.3 | 5.54 ± 0.19 |  |  |
| GLALGGGLELALACDIRVAASSAK [AUH] | 2.67 ± 0.4 | 2.9 ± 0.23 |  |  |
| LCDKLPPATALGTASYPSDGCGAD [NOL4L] | 4.98 ± 0.19 | 4.92 ± 0.23 |  |  |
| VTSNGSIGRDPPAETQPQNPPAQP [CLPTM1] | 5.41 ± 0.27 | 5.41 ± 0.15 |  |  |
| EWFQNCYARYHQAFADRDQSERQR [TEKT4] | 3.41 ± 0.24 | 3.21 ± 0.21 |  |  |
| SDASSHANAAKHTQDSARVNPQDG [EHMT1] | 5.27 ± 0.22 | 5.36 ± 0.21 |  |  |
| ALGGLQSWRVGVVRVRQDSGAEGH [TRIM35] | 2.95 ± 0.46 | 3.31 ± 0.38 |  |  |
| KPGFLAPRDLPKHTPLISKSQSLR [RASAL3] | 3.61 ± 0.2 | 3.8 ± 0.47 |  |  |
| TWAPKNKGGEERKAEGGEEDSLGC [IRX6] | 5.5 ± 0.16 | 5.42 ± 0.18 |  |  |
| QVTCLRTQVLEDSEDSFCRRHPGL [TRAF3IP2] | 4.05 ± 0.2 | 4.08 ± 0.35 |  |  |

| Sequence | protein stability index [1] | protein stability index [2] | protein stability index (treatment: DMSO, c terminus: native) | protein stability index (treatment: MLN4924 1 uM, 8 h, c terminus: native) |
| --- | --- | --- | --- | --- |
| KPDKAVSIIECDMNVDFDAPLGYK [UFD1] | 3.94 ± 0.34 | 4.21 ± 0.2 |  |  |
| QLVKKLNDSDHQSSTSPLMEGTPT [VPS39] | 4.87 ± 0.22 | 4.9 ± 0.09 |  |  |
| MPRQISRQSSVTESTLYPNPYHQP [TPRG1] | 3.73 ± 0.34 | 3.7 ± 0.25 |  |  |
| EVIISWSEKASKKYVSKELAKEIR [EIF5] | 2.34 ± 0.15 | 2.57 ± 0.26 |  |  |
| LEQMIKENQEKTEDQYEENSHLTS [ETS2] | 5.7 ± 0.16 | 5.51 ± 0.14 |  |  |
| AMSTLGVIEAIAQITVKALPKPPG [PTPRD] | 2.21 ± 0.17 | 2.16 ± 0.26 |  |  |
| FTVRPDVTQNSTAEPSRFSSSDSD [FCHO1] | 5.09 ± 0.32 | 5.06 ± 0.14 |  |  |
| SVGDPCGGAICGGPDHRLRLWRLF [SLC25A25] | 2.35 ± 0.59 | 2.62 ± 0.21 |  |  |
| SPMPYVKWMLGAEDLTPEDDMPIG [PTPRD] | 4.3 ± 0.26 | 4.17 ± 0.48 |  |  |
| SEIGTSDQIVPEYQEDSDISSFFC [TRIB1] | 4.39 ± 0.47 | 4.55 ± 0.36 |  |  |
| SKESSKEKKLTVRQDLEDRYAEHV [C22orf31] | 5.09 ± 0.27 | 5.16 ± 0.1 |  |  |
| PKLREETAHMLGVRELRIAFREFD [CABP4] | 2.92 ± 0.29 | 3.17 ± 0.29 |  |  |
| EQLGSGDGIPQVYYFGPCGKYNAM [CSNK1G3] | 2.34 ± 0.14 | 2.56 ± 0.17 |  |  |
| NMDPAGLDDEDDTSIGMPSLMYRS [RETREG3] | 4.87 ± 0.15 | 4.91 ± 0.1 |  |  |
| SPMLIVFHGKYSTINPLWHIRHLG [GLT8D2] | 2.82 ± 0.44 | 2.47 ± 0.71 |  |  |
| AQRHRELYLRVELSDVQNPAISIT [HACD3] | 2.16 ± 0.34 | 2.18 ± 0.15 |  |  |
| DGKSLVSVTKEGLELPEDEEEKKK [HSP90AB1] | 5.61 ± 0.2 | 5.44 ± 0.3 |  |  |
| VSDRLAPGAPRGNPPKASAAPDCT [MYCL] | 4.94 ± 0.22 | 4.95 ± 0.19 |  |  |
| VAWCYYSVSLRKAERLRAELLDLK [MYORG] | 2.35 ± 0.42 | 2.15 ± 0.47 |  |  |
| GQGGKLWDPSVQSCKEGLSPRGPA [ZNF263] | 3.9 ± 0.12 | 4.08 ± 0.16 |  |  |
| VRGLLASLFAFKSFRENWQRAWVR [C2CD2L] | 2.3 ± 0.59 | 2.61 ± 0.28 |  |  |
| DYRQEQPETFWIQRAPQLPTWWPL [SPAG8] | 2.48 ± 0.15 | 2.57 ± 0.19 |  |  |

| Sequence | protein stability index [1] | protein stability index [2] | protein stability index (treatment: DMSO, c terminus: native) | protein stability index (treatment: MLN4924 1 uM, 8 h, c terminus: native) |
| --- | --- | --- | --- | --- |
| YNMAPSALDSADLPPPSALKKGSK [NFE2L1] | 5.26 ± 0.16 | 5.13 ± 0.3 |  |  |
| ETLEASVGPRETEEKVRDLLWAKF [TOR1AIP2] | 3.98 ± 0.22 | 3.92 ± 0.3 |  |  |
| EEAVTVLEDLESELDDPGQPVSLR [ZNF24] | 5.58 ± 0.24 | 5.47 ± 0.21 |  |  |
| QGRKIAEVCCTSIVYATEKKQTKV [KCTD13] | 3.39 ± 0.15 | 3.61 ± 0.28 |  |  |
| ELNAEKFKNSLLQKELKKAQMAKA [WEE1] | 4 ± 0.84 | 3.42 ± 0.4 |  |  |
| YEEEFDYETESETESEIESETDFE [GNAS] | 5.12 ± 0.24 | 5.11 ± 0.16 |  |  |
| SSDHLFLFGGFTTDKQPLSDAWTY [KLHDC2] | 2.25 ± 0.61 | 2.23 ± 0.063 |  |  |
| GPEPPPVYTNLSSYSPASASSGGA [JUNB] | 4.6 ± 0.5 | 4.76 ± 0.3 |  |  |
| DPTQRILYRDVMLETFGHLLSIGP [ZNF8] | 2.21 ± 0.23 | 2.25 ± 0.22 |  |  |
| HNDLWESWFVPDPAGIFKLNHHS [GLT8D2] |  |  | 2.87 ± 0.15 | 2.9 ± 0.41 |
| LVLEQFLTILPTEIETWVREHCPE [ZNF449] | 2.2 ± 0.47 | 2.35 ± 0.47 |  |  |
| NFGLRLVVQRCSGQKWMIRNWIKH [GALNT9] | 2.67 ± 0.32 | 2.06 ± 0.59 |  |  |
| GNRINVPMVRKRSVSNSTQTSSSS [DLC1] | 4.44 ± 0.13 | 4.65 ± 0.2 |  |  |
| HFFALKVMSIPDVIRLKQEQHVHN [PRKX] | 2.25 ± 0.28 | 2.17 ± 0.1 |  |  |
| ETSVFDQFGIKDVFDNAIRAALIS [RHOBTB1] | 2.3 ± 0.22 | 2.18 ± 0.33 |  |  |
| CCTHNNSATLSWKQPPLSTVPADG [TRIM9] | 3.09 ± 0.073 | 3.02 ± 0.088 |  |  |
| SVVTTARMQVLKRQVQSLMVHQRK [SMARCE1] | 2.79 ± 0.14 | 2.94 ± 0.27 |  |  |
| ATHILVRQQGNPGHRSIYLALKLP [ADAMTS4] | 2.92 ± 0.62 | 2.1 ± 0.35 |  |  |
| DSVKVALLETNPYLLALTIIVSIV [CLPTM1] | 2.08 ± 0.28 | 2.3 ± 0.14 |  |  |
| VQDWYHFHYVDILALLPAAWEDSH [SCNN1D] | 2.77 ± 0.61 | 2.67 ± 0.67 |  |  |
| SLMYRSPPGAEEPQAPPASRDEAA [RETREG3] | 5.44 ± 0.22 | 5.38 ± 0.26 |  |  |
| FRRGEKLRVISDEGGWWKAISLST [SLA] | 3.3 ± 1.1 | 2.13 ± 0.72 |  |  |
